Molecular target: recombinant Myodes glareolus IFN-γ (recMgIFN-γ) (Myodes glareolus (bank vole))
Experiment: SEC; analytical gel filtration of 200 µl purified recMgIFN-γ in PBS at room temperature on a calibrated Superdex 75 10/300 GL column, flow rate 0.75 ml/min; detection at 230 and 260 nm

stoichiometry N: 2
Substance: recombinant Myodes glareolus IFN-γ (recMgIFN-γ) (natural protein)

— PMC5809609
